B1: GTF2I (protein, UniProt P78347 2-998, looked up)
General transcription factor …: AQVAMSTLPVEDEESSESRMVVTFLMSALESMCKELAKSKAEVACIAVYETDVFVVGTERGRAFVNTRKDFQKDFVKYCVEEEEKAAEMHKMKSTTQANRMSVDAVEIETLRKTVEDYFCFCYGKALGKSTVVPVPYEKMLRDQSAVVVQGLPEGVAFKHPENYDLATLKWILENKAGISFIIKRPFLEPKKHVGGRVMVTDADRSILSPGGSCGPIKVKTEPTEDSGISLEMAAVTVKEESEDPDYYQYNIQAGPSETDDVDEKQPLSKPLQGSHHSSEGNEGTEMEVPAEDSTQHVPSETSEDPEVEVTIEDDDYSPPSKRPKANELPQPPVPEPANAGKRKVREFNFEKWNARITDLRKQVEELFERKYAQAIKAKGPVTIPYPLFQSHVEDLYVEGLPEGIPFRRPSTYGIPRLERILLAKERIRFVIKKHELLNSTREDLQLDKPASGVKEEWYARITKLRKMVDQLFCKKFAEALGSTEAKAVPYQKFEAHPNDLYVEGLPENIPFRSPSWYGIPRLEKIIQVGNRIKFVIKRPELLTHSTTEVTQPRTNTPVKEDWNVRITKLRKQVEEIFNLKFAQALGLTEAVKVPYPVFESNPEFLYVEGLPEGIPFRSPTWFGIPRLERIVRGSNKIKFVVKKPELVISYLPPGMASKINTKALQSPKRPRSPGSNSKVPEIEVTVEGPNNNNPQTSAVRTPTQTNGSNVPFKPRGREFSFEAWNAKITDLKQKVENLFNEKCGEALGLKQAVKVPFALFESFPEDFYVEGLPEGVPFRRPSTFGIPRLEKILRNKAKIKFIIKKPEMFETAIKESTSSKSPPRKINSSPNVNTTASGVEDLNIIQVTIPDDDNERLSKVEKARQLREQVNDLFSRKFGEAIGMGFPVKVPYRKITINPGCVVVDGMPPGVSFKAPSYLEISSMRRILDSAEFIKFTVIRPFPGLVINNQLVDQSESEGPVIQESAEPSQLEVPATEEIKETDGSSQIKQEPDPTW
B2: GRHL3 (protein, UniProt Q8TE85 1-626, looked up)
Grainyhead-like protein 3 …: MSNELDFRSVRLLKNDPVNLQKFSYTSEDEAWKTYLENPLTAATKAMMRVNGDDDSVAALSFLYDYYMGPKEKRILSSSTGGRNDQGKRYYHGMEYETDLTPLESPTHLMKFLTENVSGTPEYPDLLKKNNLMSLEGALPTPGKAAPLPAGPSKLEAGSVDSYLLPTTDMYDNGSLNSLFESIHGVPPTQRWQPDSTFKDDPQESMLFPDILKTSPEPPCPEDYPSLKSDFEYTLGSPKAIHIKSGESPMAYLNKGQFYPVTLRTPAGGKGLALSSNKVKSVVMVVFDNEKVPVEQLRFWKHWHSRQPTAKQRVIDVADCKENFNTVEHIEEVAYNALSFVWNVNEEAKVFIGVNCLSTDFSSQKGVKGVPLNLQIDTYDCGLGTERLVHRAVCQIKIFCDKGAERKMRDDERKQFRRKVKCPDSSNSGVKGCLLSGFRGNETTYLRPETDLETPPVLFIPNVHFSSLQRSGGAAPSAGPSSSNRLPLKRTCSPFTEEFEPLPSKQAKEGDLQRVLLYVRRETEEVFDALMLKTPDLKGLRNAISEKYGFPEENIYKVYKKCKRGETSLLHPRLSRHPPPDCLECSHPVTQVRNMGFGDGFWRQRDLDSNPSPTTVNSLHFTVNSE
B3: GLIS3 (protein, UniProt Q8NEA6 1-775, looked up)
Zinc finger protein GLIS3: MMVQRLGLISPPASQVSTACNQISPSLQRAMNAANLNIPPSDTRSLISRESLASTTLSLTESQSASSMKQEWSQGYRALPSLSNHGSQNGLDLGDLLSLPPGTSMSSNSVSNSLPSYLFGTESSHSPYPSPRHSSTRSHSARSKKRALSLSPLSDGIGIDFNTIIRTSPTSLVAYINGSRASPANLSPQPEVYGHFLGVRGSCIPQPRPVPGSQKGVLVAPGGLALPAYGEDGALEHERMQQLEHGGLQPGLVNHMVVQHGLPGPDSQSAGLFKTERLEEFPGSTVDLPPAPPLPPLPPPPGPPPPYHAHAHLHHPELGPHAQQLALPQATLDDDGEMDGIGGKHCCRWIDCSALYDQQEELVRHIEKVHIDQRKGEDFTCFWAGCPRRYKPFNARYKLLIHMRVHSGEKPNKCTFEGCEKAFSRLENLKIHLRSHTGEKPYLCQHPGCQKAFSNSSDRAKHQRTHLDTKPYACQIPGCTKRYTDPSSLRKHVKAHSSKEQQARKKLRSSTELHPDLLTDCLTVQSLQPATSPRDAAAEGTVGRSPGPGPDLYSAPIFSSNYSSRSGTAAGAVPPPHPVSHPSPGHNVQGSPHNPSSQLPPLTAVDAGAERFAPSAPSPHHISPRRVPAPSSILQRTQPPYTQQPSGSHLKSYQPETNSSFQPNGIHVHGFYGQLQKFCPPHYPDSQRIVPPVSSCSVVPSFEDCLVPTSMGQASFDVFHRAFSTHSGITVYDLPSSSSSLFGESLRSGAEDATFLQISTVDRCPSQLSSVYTEG
B4: HDAC11 (protein, UniProt Q96DB2 1-347, looked up)
Histone deacetylase 11: MLHTTQLYQHVPETRWPIVYSPRYNITFMGLEKLHPFDAGKWGKVINFLKEEKLLSDSMLVEAREASEEDLLVVHTRRYLNELKWSFAVATITEIPPVIFLPNFLVQRKVLRPLRTQTGGTIMAGKLAVERGWAINVGGGFHHCSSDRGGGFCAYADITLAIKFLFERVEGISRATIIDLDAHQGNGHERDFMDDKRVYIMDVYNRHIYPGDRFAKQAIRRKVELEWGTEDDEYLDKVERNIKKSLQEHLPDVVVYNAGTDILEGDRLGGLSISPAGIVKRDELVFRMVRGRRVPILMVTSGGYQKRTARIIADSILNLFGLGLIGPESPSVSAQNSDTPLLPPAVP
B5: GMNN (protein, UniProt O75496 1-209, looked up)
Geminin: MNPSMKQKQEEIKENIKNSSVPRRTLKMIQPSASGSLVGRENELSAGLSKRKHRNDHLTSTTSSPGVIVPESSENKNLGGVTQESFDLMIKENPSSQYWKEVAEKRRKALYEALKENEKLHKEIEQKDNEIARLKKENKELAEVAEHVQYMAELIERLNGEPLDNFESLDNQEFDSEEETVEDSLVEDSEIGTCAEGTVSSSTDAKPCI
B6: GPS2 (protein, UniProt Q13227 1-327, looked up)
G protein pathway suppressor 2: MPALLERPKLSNAMARALHRHIMMERERKRQEEEEVDKMMEQKMKEEQERRKKKEMEERMSLEETKEQILKLEEKLLALQEEKHQLFLQLKKVLHEEEKRRRKEQSDLTTLTSAAYQQSLTVHTGTHLLSMQGSPGGHNRPGTLMAADRAKQMFGPQVLTTRHYVGSAAAFAGTPEHGQFQGSPGGAYGTAQPPPHYGPTQPAYSPSQQLRAPSAFPAVQYLSQPQPQPYAVHGHFQPTQTGFLQPGGALSLQKQMEHANQQTGFSDSSSLRPMHPQALHPAPGLLASPQLPVQMQPAGKSGFAATSQPGPRLPFIQHSQNPRFYHK
B7: GTF2A1L (protein, UniProt Q9UNN4 1-478, looked up)
TFIIA-alpha and beta-like …: MACLNPVPKLYRSVIEDVIEGVRNLFAEEGIEEQVLKDLKQLWETKVLQSKATEDFFRNSIQSPLFTLQLPHSLHQTLQSSTASLVIPAGRTLPSFTTAELGTSNSSANFTFPGYPIHVPAGVTLQTVSGHLYKVNVPIMVTETSGRAGILQHPIQQVFQQLGQPSVIQTSVPQLNPWSLQATTEKSQRIETVLQQPAILPSGPVDRKHLENATSDILVSPGNEHKIVPEALLCHQESSHYISLPGVVFSPQVSQTNSNVESVLSGSASMAQNLHDESLSTSPHGALHQHVTDIQLHILKNRMYGCDSVKQPRNIEEPSNIPVSEKDSNSQVDLSIRVTDDDIGEIIQVDGSGDTSSNEEIGSTRDADENEFLGNIDGGDLKVPEEEADSISNEDSATNSSDNEDPQVNIVEEDPLNSGDDVSEQDVPDLFDTDNVIVCQYDKIHRSKNKWKFYLKDGVMCFGGRDYVFAKAIGDAEW
B8: GTF2IRD1 (protein, UniProt Q9UHL9 1-959, looked up)
General transcription factor …: MALLGKRCDVPTNGCGPDRWNSAFTRKDEIITSLVSALDSMCSALSKLNAEVACVAVHDESAFVVGTEKGRMFLNARKELQSDFLRFCRGPPWKDPEAEHPKKVQRGEGGGRSLPRSSLEHGSDVYLLRKMVEEVFDVLYSEALGRASVVPLPYERLLREPGLLAVQGLPEGLAFRRPAEYDPKALMAILEHSHRIRFKLKRPLEDGGRDSKALVELNGVSLIPKGSRDCGLHGQAPKVPPQDLPPTATSSSMASFLYSTALPNHAIRELKQEAPSCPLAPSDLGLSRPMPEPKATGAQDFSDCCGQKPTGPGGPLIQNVHASKRILFSIVHDKSEKWDAFIKETEDINTLRECVQILFNSRYAEALGLDHMVPVPYRKIACDPEAVEIVGIPDKIPFKRPCTYGVPKLKRILEERHSIHFIIKRMFDERIFTGNKFTKDTTKLEPASPPEDTSAEVSRATVLDLAGNARSDKGSMSEDCGPGTSGELGGLRPIKIEPEDLDIIQVTVPDPSPTSEEMTDSMPGHLPSEDSGYGMEMLTDKGLSEDARPEERPVEDSHGDVIRPLRKQVELLFNTRYAKAIGISEPVKVPYSKFLMHPEELFVVGLPEGISLRRPNCFGIAKLRKILEASNSIQFVIKRPELLTEGVKEPIMDSQGTASSLGFSPPALPPERDSGDPLVDESLKRQGFQENYDARLSRIDIANTLREQVQDLFNKKYGEALGIKYPVQVPYKRIKSNPGSVIIEGLPPGIPFRKPCTFGSQNLERILAVADKIKFTVTRPFQGLIPKPDEDDANRLGEKVILREQVKELFNEKYGEALGLNRPVLVPYKLIRDSPDAVEVTGLPDDIPFRNPNTYDIHRLEKILKAREHVRMVIINQLQPFAEICNDAKVPAKDSSIPKRKRKRVSEGNSVSSSSSSSSSSSSNPDSVASANQISLVQWPMYMVDYAGLNVQLPGPLNY
B9: HAND1 (protein, UniProt O96004 1-215, looked up)
Heart- and neural crest …: MNLVGSYAHHHHHHHPHPAHPMLHEPFLFGPASRCHQERPYFQSWLLSPADAAPDFPAGGPPPAAAAAATAYGPDARPGQSPGRLEALGGRLGRRKGSGPKKERRRTESINSAFAELRECIPNVPADTKLSKIKTLRLATSYIAYLMDVLAKDAQSGDPEAFKAELKKADGGRESKRKRELQQHEGFPPALGPVEKRIKGRTGWPQQVWALELNQ
B10: GTF2A1 (protein, UniProt P52655 2-376, looked up)
Transcription initiation …: ANSANTNTVPKLYRSVIEDVINDVRDIFLDDGVDEQVLMELKTLWENKLMQSRAVDGFHSEEQQLLLQVQQQHQPQQQQHHHHHHHQQAQPQQTVPQQAQTQQVLIPASQQATAPQVIVPDSKLIQHMNASNMSAAATAATLALPAGVTPVQQILTNSGQLLQVVRAANGAQYIFQPQQSVVLQQQVIPQMQPGGVQAPVIQQVLAPLPGGISPQTGVIIQPQQILFTGNKTQVIPTTVAAPTPAQAQITATGQQQPQAQPAQTQAPLVLQVDGTGDTSSEEDEDEEEDYDDDEEEDKEKDGAEDGQVEEEPLNSEDDVSDEEGQELFDTENVVVCQYDKIHRSKNKWKFHLKDGIMNLNGRDYIFSKAIGDAEW
B11: HDAC8 (protein, UniProt Q9BY41 1-377, looked up)
Histone deacetylase 8: MEEPEEPADSGQSLVPVYIYSPEYVSMCDSLAKIPKRASMVHSLIEAYALHKQMRIVKPKVASMEEMATFHTDAYLQHLQKVSQEGDDDHPDSIEYGLGYDCPATEGIFDYAAAIGGATITAAQCLIDGMCKVAINWSGGWHHAKKDEASGFCYLNDAVLGILRLRRKFERILYVDLDLHHGDGVEDAFSFTSKVMTVSLHKFSPGFFPGTGDVSDVGLGKGRYYSVNVPIQDGIQDEKYYQICESVLKEVYQAFNPKAVVLQLGADTIAGDPMCSFNMTPVGIGKCLKYILQWQLATLILGGGGYNLANTARCWTYLTGVILGKTLSSEIPDHEFFTAYGPDYVLEITPSCRPDRNEPHRIQQILNYIKGNLKHVV

Tested on: HEK293FT cells transfected with TF library
Experiment: Screening of TF condensates based on fluorescent puncta
Format: cell-based
Conditions: Figure 1B numerical data; TF library screen, one value per transcriptional factor
Summary of the method: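 TF plasmids (final 1.6 μg/ml) reverse-transfected with PEI (4.8 μg/ml) into HEK293FT cells; after 60 h, cells cultured ±glucose for 12 h, fixed in 4% PFA and immunostained for Flag or GAL4 tags with Alexa 488 secondaries. Puncta scored by automated imaging of 50 random fields per well.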

Molecule	Z score of condensed fraction
B1	0.02684
B2	-0.6859
B3	0.8153
B4	0.2732
B5	0.2471
B6	-0.6135
B7	3.206
B8	-0.874
B9	-0.3888
B10	0.06864
B11	0.9737

— paper PMC11574045, “A cofactor-induced repressive type of transcription factor condensation can be induced by synthetic peptides to suppress tumorigenesis” (The EMBO Journal, 2024)
